The numbers were not newly measured in article PMC6969543, which cites them from elsewhere.

This data set deals with Glu325 (UniProt position 325, TLHMFEVPFLL). The data set is described as follows: IR.

As to “Lactose permease (LacY), form used in earlier work (quoted values) (Escherichia coli)”, the pKa is on record as 10.5 ± 0.1.
